Columns and labels:
[1] = target: CS1-specific CAR (anti-CS1-scFv-CD28-CD3ζ; Pinco-CS1-CAR construct), expressed on transduced primary human T cells; assay: flow cytometry, CS1-CAR-transduced healthy donor T cells
[2] = target: CS1-specific CAR (anti-CS1-scFv-CD28-CD3ζ; Pinco-CS1-CAR construct), expressed on transduced primary human T cells; assay: flow cytometry, CS1-CAR-transduced T cells of patients with relapsed myeloma, double staining with anti-CD3

Sequence of CS1-specific CAR (anti-CS1-scFv-CD28-CD3ζ; Pinco-CS1-CAR construct), expressed on transduced primary human T cells (chain, as listed by the source): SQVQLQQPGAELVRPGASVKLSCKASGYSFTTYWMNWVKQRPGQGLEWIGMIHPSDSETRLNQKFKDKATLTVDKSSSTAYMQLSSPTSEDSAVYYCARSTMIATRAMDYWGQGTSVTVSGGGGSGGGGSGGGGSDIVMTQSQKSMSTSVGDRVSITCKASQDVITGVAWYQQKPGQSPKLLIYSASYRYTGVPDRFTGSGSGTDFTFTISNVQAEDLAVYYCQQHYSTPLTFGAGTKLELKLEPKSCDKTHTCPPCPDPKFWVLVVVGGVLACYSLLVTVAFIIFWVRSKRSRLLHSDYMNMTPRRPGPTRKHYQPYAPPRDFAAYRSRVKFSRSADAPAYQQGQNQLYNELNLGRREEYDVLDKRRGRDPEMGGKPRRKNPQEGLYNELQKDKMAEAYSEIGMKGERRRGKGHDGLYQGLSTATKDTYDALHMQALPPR

What does the source list for “biotin-labeled goat anti-mouse (Fab)2 polyclonal antibody (Jackson ImmunoResearch)”?
percent of cells stained [1]: 70.3%; percent of cells stained [2]: 60.7%
